PMC11218660, “Functional dissection of human cardiac enhancers and noncoding de novo variants in congenital heart disease”

Target: T1, SRF (human, UniProt P11831 1-508)
T1 sequence: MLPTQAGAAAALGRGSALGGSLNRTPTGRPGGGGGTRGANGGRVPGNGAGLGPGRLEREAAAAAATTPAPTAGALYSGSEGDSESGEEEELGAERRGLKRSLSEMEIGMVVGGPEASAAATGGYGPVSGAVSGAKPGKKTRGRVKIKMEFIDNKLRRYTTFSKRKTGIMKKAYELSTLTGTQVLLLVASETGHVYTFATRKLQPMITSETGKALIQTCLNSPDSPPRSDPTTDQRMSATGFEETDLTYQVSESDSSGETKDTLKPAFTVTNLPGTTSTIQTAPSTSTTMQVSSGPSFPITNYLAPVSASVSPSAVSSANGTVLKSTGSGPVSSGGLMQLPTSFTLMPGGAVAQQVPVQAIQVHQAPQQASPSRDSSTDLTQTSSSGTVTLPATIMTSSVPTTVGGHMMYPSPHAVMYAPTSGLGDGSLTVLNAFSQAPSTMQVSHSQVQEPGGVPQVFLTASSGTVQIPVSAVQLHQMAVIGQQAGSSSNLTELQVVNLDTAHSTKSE
Test: EMSA; EMSA: 150 mM KCl, 0.1 mM DTT, 0.1 mM EDTA, 10 mM Tris pH 7.4; 500-800 fmol probe, 0.1-2.0 ug protein in 15-20 ul; room temperature 20 min; 6% native PAGE, SYBR
Conditions: protein: recombinant; chain copies: 2; blunt

B1: ADAMTS6-CRE ALT (dsDNA)
DNA 1: AATGCATCTGCTTGCTTCATTTGGCAGATTCCTCAAGAGT
DNA 2: ACTCTTGAGGAATCTGCCAAATGAAGCAAGCAGATGCATT
B1: binds.

B2: GLB1L3-CRE REF (dsDNA)
DNA 1: GAGGGAGGGGAGCGATCTCTCCTTTCTTGGAGAAAATAGTATCGC
DNA 2: GCGATACTATTTTCTCCAAGAAAGGAGAGATCGCTCCCCTCCCTC
B2: binds.
